The values that follow come from patent US20200148732A1 (UNIVERSITY OF COPENHAGEN, published 2020).

This test concerns the target T1, GFP-TONSL W563A (Homo sapiens, UniProt Q96HA7 1-1378).
T1 construct: also called TONSL W563A / GFP; not shown: N-terminal GFP tag
T1 sequence: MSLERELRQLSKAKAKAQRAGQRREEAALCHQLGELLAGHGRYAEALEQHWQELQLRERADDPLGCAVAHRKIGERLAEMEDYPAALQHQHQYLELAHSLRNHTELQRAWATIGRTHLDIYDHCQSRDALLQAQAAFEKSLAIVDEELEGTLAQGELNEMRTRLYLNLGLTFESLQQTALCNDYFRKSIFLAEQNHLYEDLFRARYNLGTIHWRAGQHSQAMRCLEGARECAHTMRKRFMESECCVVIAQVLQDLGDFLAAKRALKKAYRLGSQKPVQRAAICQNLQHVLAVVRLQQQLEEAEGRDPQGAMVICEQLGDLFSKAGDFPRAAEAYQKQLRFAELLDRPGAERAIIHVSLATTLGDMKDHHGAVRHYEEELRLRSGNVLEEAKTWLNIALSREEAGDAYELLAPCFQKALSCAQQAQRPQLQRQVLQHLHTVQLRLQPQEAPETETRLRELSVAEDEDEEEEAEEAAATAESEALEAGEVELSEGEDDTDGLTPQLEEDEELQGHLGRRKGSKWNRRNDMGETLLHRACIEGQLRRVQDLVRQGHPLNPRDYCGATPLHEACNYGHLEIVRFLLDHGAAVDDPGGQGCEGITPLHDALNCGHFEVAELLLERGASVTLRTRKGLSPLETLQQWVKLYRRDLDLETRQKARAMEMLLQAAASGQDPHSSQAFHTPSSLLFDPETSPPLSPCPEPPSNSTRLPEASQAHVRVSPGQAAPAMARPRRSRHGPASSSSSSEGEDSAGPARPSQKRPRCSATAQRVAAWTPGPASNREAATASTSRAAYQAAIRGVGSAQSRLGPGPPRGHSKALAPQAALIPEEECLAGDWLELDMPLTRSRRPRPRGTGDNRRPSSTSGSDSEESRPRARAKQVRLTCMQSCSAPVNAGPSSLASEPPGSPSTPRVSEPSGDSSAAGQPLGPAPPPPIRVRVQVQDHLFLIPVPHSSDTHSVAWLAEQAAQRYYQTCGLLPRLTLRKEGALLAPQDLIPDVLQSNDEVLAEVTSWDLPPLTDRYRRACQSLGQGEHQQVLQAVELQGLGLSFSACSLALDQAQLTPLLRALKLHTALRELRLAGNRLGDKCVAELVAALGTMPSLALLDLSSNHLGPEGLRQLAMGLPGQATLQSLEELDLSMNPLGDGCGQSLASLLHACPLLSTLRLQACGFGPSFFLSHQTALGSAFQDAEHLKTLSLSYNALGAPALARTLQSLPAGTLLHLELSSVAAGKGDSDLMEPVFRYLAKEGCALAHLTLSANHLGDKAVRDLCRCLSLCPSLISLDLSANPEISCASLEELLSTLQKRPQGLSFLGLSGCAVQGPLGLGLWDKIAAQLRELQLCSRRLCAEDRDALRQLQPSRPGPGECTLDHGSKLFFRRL
The experiment in a line: GFP immunoprecipitation of GFP-TONSL from transfected HeLa S3 cells, western blot (co-IP; association may be indirect).

B1: MMS22L (endogenous, in cell extracts) (other, UniProt Q6ZRQ5 1-1243, looked up)
chain: MENCSAASTFLTDSLELELGTEWCKPPYFSCAVDNRGGGKHFSGESYLCSGALKRLILNLDPLPTNFEEDTLEIFGIQWVTETALVNSSRELFHLFRQQLYNLETLLQSSCDFGKVSTLHCKADNIRQQCVLFLHYVKVFIFRYLKVQNAESHVPVHPYEALEAQLPSVLIDELHGLLLYIGHLSELPSVNIGAFVNQNQIKLFPPSWHLLHLHLDIHWLVLEILYMLGEKLKQVVYGHQFMNLASDNLTNISLFEEHCETLLCDLISLSLNRYDKVRSSESLMSDQCPCLCIKELWVLLIHLLDHRSKWFVSESFWNWLNKLLKTLLEKSSDRRRSSMPVIQSRDPLGFSWWIITHVASFYKFDRHGVPDEMRKVESNWNFVEELLKKSISVQGVILEEQLRMYLHCCLTLCDFWEPNIAIVTILWEYYSKNLNSSFSISWLPFKGLANTMKSPLSMLEMVKTCCCDKQDQELYKSSSSYTIFLCILAKVVKKAMKSNGPHPWKQVKGRIYSKFHQKRMEELTEVGLQNFFSLFLLLAAVAEVEDVASHVLDLLNFLKPAFVTSQRALIWKGHMAFLLMYAQKNLDIGVLAEKFSCAFREKAKEFLVSKNEEMVQRQTIWTLLSIYIDGVQEVFETSYCLYPSHEKLLNDGFSMLLRACRESELRTVLSFLQAVLARIRSMHQQLCQELQRDNVDLFVQSSLSAKERHLAAVASALWRHFFSFLKSQRMSQVVPFSQLADAAADFTLLAMDMPSTAPSDFQPQPVISIIQLFGWDDIICPQVVARYLSHVLQNSTLCEALSHSGYVSFQALTVRSWIRCVLQMYIKNLSGPDDLLIDKNLEEAVEKEYMKQLVKLTRLLFNLSEVKSIFSKAQVEYLSISEDPKKALVRFFEAVGVTYGNVQTLSDKSAMVTKSLEYLGEVLKYIKPYLGKKVFSAGLQLTYGMMGILVKSWAQIFATSKAQKLLFRIIDCLLLPHAVLQQEKELPAPMLSAIQKSLPLYLQGMCIVCCQSQNPNAYLNQLLGNVIEQYIGRFLPASPYVSDLGQHPVLLALRNTATIPPISSLKKCIVQVIRKSYLEYKGSSPPPRLASILAFILQLFKETNTDIYEVELLLPGILKCLVLVSEPQVKRLATENLQYMVKACQVGSEEEPSSQLTSVFRQFIQDYGMRYYYQVYSILETVATLDQQVVIHLISTLTQSLKDSEQKWGLGRNIAQREAYSKLLSHLGQMGQDEMQRLENDNT
In the case of B1, the binding result is recorded as “binds”.
